Results as given in the nanobody polyreactivity screen of Harvey et al. (2022).

assay: yeast display, Sf9 membrane polyspecificity reagent, FACS + sequencing; frameworks hold sequencing errors
Outline: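 A nanobody's polyreactivity label depends on the gate it was sorted from. Yeast display cells were stained with 10% biotinylated, detergent-solubilized Sf9 membrane reagent for 1 hour at 4 °C, enriched on streptavidin microbeads and sorted by FACS. The low and high (top ~1%) gates were set on anti-HA fluorescence for expression and streptavidin fluorescence for reagent binding.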

| Sequence | polyreactivity (PSR sort gate) |
| --- | --- |
| QVQLVESGGGLVQAGGSLRLSCAASGFIFNYNAMGWYRQAPGKERELVAAIRTSSGSTYYADSVKGRFTISRDNAKNTVYLQMNSLKPEDTAVYYCAKTRYSTYSPIYYYWGQGTQVTVSS | high polyreactivity |
| QVQLVESGGGLVQAGGSLRLSCAASGFIFNYYDMGWYRQAPGKERELVAAITYSVGSTYYADSVKGRFTISRDNAKNTVYLQMNSLKPEDTAVYYCNKDFLYGIYSYDYWGQGTQVTVSS | high polyreactivity |
| QVQLVESGGGLVQAGGSLRLSCAASGFIFPAYAMGWYRQAPGKEMALVAAITSGGSTNYADSVKGRFTISRDNAKNTVYLQMNSLKPEDTAVYYCAADFDSILSVRSYRSRWYDYWGQGTQVAVSS | low polyreactivity |
| QVQLVESGGGLVQAGGSLRLSCAASGFIFPDNAMGWYRQAPGKERELVATITSGGNTYYADSVKGRFTISRDNAKNTVYIQMNSLKPEDTAVYYSAAEWDYYDYDWYIAWTIDYWGQGTQVTVSS | low polyreactivity |
| QVQLVESGGGLVQAGGSLRLSCAASGFIFPDYGMGSYRQAPGKERELVAAIYRNGVSTYYADSVKGRFTISRDNAKNTVYLQMKSLKPEDTAVYYCAARFYRIRRVSKSGYYWGLGTQVTVSS | low polyreactivity |
| QVQLVESGGGLVQAGGSLRLSCAASGFIFPGYAMGWYRQAPGKEREFVAVISRSGVRTYYADSVKGRFTISRDNAKNTVYLQMNSLKPEDTAVYYCAARYYSTDLEYWGQGTQVTVSS | low polyreactivity |
| QVQLVESGGGLVQAGGSLRLSCAASGFIFPLYTMGWYRQAPGKERELVAAISWIGGRTYYADSVKGRFTISRDNAKNTVYLQMNSLKPEDSAVYYCAKDPTGGGYGYDYWGQGTQVTVSS | low polyreactivity |
| QVQLVESGGGLVQAGGSLRLSCAASGFIFPNKAMGWYRQAPGKERELVARISYGGGDTHYADSVKGRFTISRDNAKNTVYLQMNSLKPEDTAVYYCSYYYWGQGTQVTVSS | low polyreactivity |
| QVQLVESGGGLVQAGGSLRLSCAASGFIFPRYFMGLYRQAPGKERELVAAINSDISTNYADSVKWRFTISRDNAKNTVYLQMNSLKPEDTAVYYCAADRWDDPWEFDYWGQCTQVTVSS | low polyreactivity |
| QVQLVESGGGLVQAGGSLRLSCAASGFIFPWNAMAWYRQAPRKERELVAAISFSGGSTYYADSVKGRFTISRDNAKNTVYLQMNSLKPEDTAVYYCAKRTWDLRRTRHYYWGQGTQVTVSS | low polyreactivity |
| QVQLVESGGGLVQAGGSLRLSCAASGFIFPYNTMGWYRQATAKERELVAAIRYSAGRTYYADSVKGRFTISRDNAKNTVYLQMNSLKPEDTEVYYCNGVSSGDMDYWGQGTQVTVSS | high polyreactivity |
| QVQLVESGGGLVQAGGSLRLSCAASGFIFPYYAMGWYRQAPGKERELVAAISGSGGSTYYADSVKGRFTISRDNANYTVYLQMNSLKPEDTAVYYCAASARRLNMGYWGQGTQVTVSS | high polyreactivity |
| QVQLVESGGGLVQAGGSLRLSCAASGFIFQGNAKGWYRQAPGKERELVAAITRGGGRTYYADSVKGRFTISRDNSKNTVYLQMNSLKPEDSAVNYCNAVGRSKYDYWGQGTQVTVSW | high polyreactivity |
| QVQLVESGGGLVQAGGSLRLSCAASGFIFQIYAMGWYRQAPGKERELVAAISSGGSTNYADSVKGRFTISRDNAKNTVYVQMNSMKPEDTAVYYCAAATHYWYFYSFKDKSGFRGYYWGQGTQVTVSS | high polyreactivity |
| QVQLVESGGGLVQAGGSLRLSCAASGFIFQIYPMGWYRQAPGKERELVAAISSGGSTNYADSVKGRFTISRDNAKNTVYLQMNSLKPEDTAVYYCAAATHYWYFYSFKDKSGFRGYYWGQGTQVTVSS | high polyreactivity |
| QVQLVESGGGLVQAGGSLRLSCAASGFIFQRYAMGWYRQAPGKERELVAAISSGGGTNYADSVKGRFTISRDNAKNTVYLQMNSLKPEDTAVYYCARPYYVYSQSSDYWGQGTQVTVSS | low polyreactivity |
| QVQLVESGGGLVQAGGSLRLSCAASGFIFQRYAMGWYRQAPGKERELVAAISSSGGRTSYADSVKGRFTISRDNAKNTVYLQMNSLKPEDTAVYYCAAYPQGRWYVVWSGDYWGQGTQVTVSS | high polyreactivity |
| QVQLVESGGGLVQAGGSLRLSCAASGFIFQTNVMGWYRQAPGKERELVAAISSGDSTYYADSVKGRFTISRDNAKNTVYLQLNSLKPEDTAVYYCAADVLGTTTTVGGFNYWGQGTQVTVSS | low polyreactivity |
| QVQLVESGGGLVQAGGSLRLSCAASGFIFQYNAMGWYRQAPGKERELVAAITSRGGSTYYADSVKGRFTISRDNAKNTVFLQMNSLKPEDTAVYYCATRRSYLADYWGQGTQVTVSS | high polyreactivity |
| QVQLVESGGGLVQAGGSLRLSCAASGFIFRANAMGLYREAPGKERELVATISRSGGSTSYADSVKGRFTISRDNAKNTVYLQMNSLKPEDTAVYYCNKRTPYLRPIRDYWGQGTQVTVSS | high polyreactivity |
| QVQLVESGGGLVQAGGSLRLSCAASGFIFRDNAMGWYRQAHGKERELVASIRSSGGRTYYADSVKGRFTISRDNAKNTVYLQMNSLKPEDTAVYYCARRWYPVTPYARMYYWGQGTQVTVSS | low polyreactivity |

| Sequence | polyreactivity (PSR sort gate) |
| --- | --- |
| QVQLVESGGGLVQAGGSLRLSCAASGFIFRDNAMGWYRQAPGKERELVAAISKSGGRTYYADSVKGRFTISRDNAKNTVYLQMNCLKPEDTAVYYCAADAYHFGRMDYWGQGTQVTVSS | high polyreactivity |
| QVQLVESGGGLVQAGGSLRLSCAASGFIFRDYAMGWYRQAPGKEREFVAAITSRGGSTYYADSVKGRFTISRDNAKNTVYLQMNSLKPEDTAVYYCNRYWWAYGEYDYWGQGTQVTVSS | high polyreactivity |
| QVQLVESGGGLVQAGGSLRLSCAASGFIFRDYAMGWYRQAPGKERELVAAISWSSDSTYYADSVKWRFTISRDNAKNTVYLQMNSLKPEDTAVYYCAAKGLRGYWWGFDYWGQGTQVTVSS | low polyreactivity |
| QVQLVESGGGLVQAGGSLRLSCAASGFIFRFNAMGWYRQAPGKERELVAVIRWSSGSTYYADSVKGRFTISRDNAKNTVYLQMNSLKPEDTAVYYCAAYVVPAYYYWGQGTQVTVSS | low polyreactivity |
| QVQLVESGGGLVQAGGSLRLSCAASGFIFRGKAMGWYRQAPGKERELVAAISSRGGSTYYADSVKGRFTISRDNAKNSVYLQMNSLKPEDTAVYYCAAGSTSGYFRYYYWGQGTQVTVSS | high polyreactivity |
| QVQLVESGGGLVQAGGSLRLSCAASGFIFRINAMGWYRQAPGKERELVARITSGGSTYYADSVKGRFTISRDNAKNTVYLQMNSLKPEDTAVYYCAARVKYYGSQSRYYWGQVTQVTVSS | high polyreactivity |
| QVQLVESGGGLVQAGGSLRLSCAASGFIFRKNAMGWYRQAPGKERELVAANSQSGGSTYYADSVKGRFTISRDNAKNTVYLQMNSLKPEDTAVYYCAARYDLPNWVGGREYNYWGQGTQVTVSS | high polyreactivity |
| QVQLVESGGGLVQAGGSLRLSCAASGFIFRKYAMGWFRQAPGKERELVAAISRGGGSTYYADSVKGRFTISRDNAKNTVYLQMNSLKPEDTAVYYCAVGIVQRDSRYYYWGQGTQVTVSS | high polyreactivity |
| QVQLVESGGGLVQAGGSLRLSCAASGFIFRLYTMGLYRQAPGKERELVARITRGDSTNYADSVKGRFTISRDNAQNTVYLQMNCLYPEDTAVYYCAKLHRGLPYYSFYRGYYYWGQVTQVTVSS | low polyreactivity |
| QVQLVESGGGLVQAGGSLRLSCAASGFIFRNYAMGWYRQAPGKERELVAAITRSGTSTYYADSVKGRFTISRDNAKNTVYLQMNSLKPEDTAVYYCAARAWSSRRRLMYYWGQGTQVTVSS | high polyreactivity |
| QVQLVESGGGLVQAGGSLRLSCAASGFIFRPYAMGWYRQAPGKERELVAAISFSGGSTYYADSVKGRFTISRDNAKNTVYLQMNSLIPEDTAVYYCAAVYYFSYWLGPDDYWGQGTQVTVSS | low polyreactivity |
| QVQLVESGGGLVQAGGSLRLSCAASGFIFRPYAMGWYRQAPGKERELVATIRWGASSTHYADSVKGRFTISRDNAKNTVYLQMNSLKPEDTAVYDCNADGWYGAVYWWFYGFDYWGQGTQVTVSS | low polyreactivity |
| QVQLVESGGGLVQAGGSLRLSCAASGFIFRQYAMGWYIQAPGKERELVAAITWSGTRTYYADSVKGRFTISRDNAKNTVYLQMNSLKPEDTAVYYCNAGYPKYGYDYWGQGTQVTVSS | high polyreactivity |
| QVQLVESGGGLVQAGGSLRLSCAASGFIFRQYAMGWYRQAPGKERELVAAISTGGGRTYYADSVKGRFTISRDNAKNTVYLQMNSLKPEDTAVYYCAVYYYKTYDYWGQGTQVTVSS | high polyreactivity |
| QVQLVESGGGLVQAGGSLRLSCAASGFIFRRYAMGWYRQAPGKERELVAAITRSGGSTYYADSVKGRFTISRDNAMNTVYLQMNSLKPEDTAVYYCNARYARVVPRYYYWGQGTQVTVSS | high polyreactivity |
| QVQLVESGGGLVQAGGSLRLSCAASGFIFRRYTMGWYRQAPGKERELVATITRSVNTDYADSVKGRFTISRDNAKNTVYLHMNSLKPEDTAVYYCAARKYFYFPVAYDYWGQGTQVTVSS | high polyreactivity |
| QVQLVESGGGLVQAGGSLRLSCAASGFIFRSNAMGWYRQAPGKEREFVAAISSRGGSTTYADSVKGRFTISRDNAKNSVYLQMNSLKPEDTAVYYCARDWYYYPQYRQRYYYWGQGTQVTVSS | high polyreactivity |
| QVQLVESGGGLVQAGGSLRLSCAASGFIFRSNAMGWYRQAPGKERELVAAISGRGCSTYYADSVKGRFTISRDNAKNTVYLQMNSLKPVDTAVYYCAKSTVWVLYGYWGQGTQVTVSS | high polyreactivity |
| QVQLVESGGGLVQAGGSLRLSCAASGFIFRSNAMGWYRQAPWKEREFVAAITYSSGSTYYRNSVKGRFTISRDNAKNTVYLQMNSLKPEDTAVYYCATPVTNGFDYWGQGTQVTVSS | high polyreactivity |
| QVQLVESGGGLVQAGGSLRLSCAASGFIFRSYAMGWYRQAPGKERELVAAISRSGGSTYYADSVKGRFTISRDNAKNTVYLQMNSLKPEDTAVYYCATDGGRSTARGYGHWGQGTQVTVSS | high polyreactivity |
